Biological target: RBD domain derived from the Omicron strain (B.1.1.529 strain) (SARS-CoV-2 Omicron strain (B.1.1.529)) (UniProt P0DTC2)
Assay: SPR (Biacore T200), as in Example 4: antibody on the chip, RBD as analyte

## S309 (antibody)
  Kd: 2.1 nM

— patent WO2023002944A1
